Tested on: Pseudomonas fluorescens HPPD polypeptide (wild-type and mutants)
Test: Coupled HPPD activity assay: turnover and residual turnover in crude HPPD polypeptide extracts with and without Cmpd. 1
Type: biochemical
Settings: for turnover and residual turnover, comparison in words: 100 μM Cmpd. 1, Table 3; for Turnover: absence of Cmpd. 1; for Turnover / Residual turnover: changes in absorbance (OD) at 320 nm in the coupled assay, 30 min; for Residual turnover: presence of 100 μM Cmpd. 1; for Residual turnover [%]: 100 μM Cmpd. 1, normalised to turnover without inhibitor
Protocol: For the generation of crude HPPD polypeptide extract in micro titer plates (MTP) for the determination of residual activity in inhibition assays, cells were grown in 40 or 150 μl LB medium containing 1% Glucose (Merck, Darmstadt, Germany) and 100 μg/ml ampicillin in a standard 96 well plate (Thermo Fisher Scientific, Waltham, USA) incubated for about 18 h in a humidity incubator at 37° C. 30 μl of this starter culture were added to 600 μl LB medium containing 100 μg/ml ampicillin and 150 mM Hepes (Merck, Darmstadt, Germany) as inoculum for the expression culture in 96 well plates (2 ml deep wells; HJ Bioanalytik, Erkelenz, Germany). The plates were sealed by an aluminium foil, and cells were incubated for 5 h at 37° C. on a plate shaker at 750 rpm. The expression was induced by addition of IPTG in a final concentration of 1 mM followed by further sealed incubation for about 18 h at 30° C. on a plate shaker at 750 rpm.
Cells were harvested by centrifugation at 4° C., 2500 g for 15 min discarding the supernatant. Cell pellets were stored at −80° C. and lysed in 250 μl 1× BugBuster® (Merck, Darmstadt, Germany) in 140 mM Tris (pH 7.8), with 1:25000 diluted BNase® (Qiagen, Hilden, Germany) by incubation of the resuspended cells for 30 min at 4° C. and 1000 rpm. Lysates were clarified by centrifugation for 15 min at 4° C., 2500 g, and 150 μl supernatant were transferred in standard 96 well plate (Thermo Fisher Scientific, Waltham, USA) for subsequent testing in quadruplets.
The activity of HPPD polypeptides was determined in absence or presence of HPPD inhibitors using the coupled HPPD activity assay (FIG. 1).
For the determination of the residual activity, the apparent kinetic constant (kapp) of the determined substrate conversion was measured as kinetic changes in absorbance (OD) at 320 nm in a coupled assay, in that homogentisate (HGA) formed by HPPD from HPP is directly converted into the well absorbing molecule maleylacetoacetate (MAA) by a second enzyme homogentisate dioxygenase (HGD), applied in excess uniformly in all assays (see FIG. 1). The measurements were performed in 384 micro titer plates (Greiner Bio-One GmbH, Frickenhausen, Germany) by plate readers (Tecan infinite M1000 or M1000PRO, Tecan, Männedorf, Switzerland). The kcat/kM ratio of an enzymatic activity is proportional to the apparent kinetic constant kapp and is proportional to kcat/kM*[E] ([E]=enzyme concentration). […] As both kapp measurements in the presence and absence of inhibitor were performed by use of the identical enzyme sample, crude or purified, and thereby at the same enzyme concentration, the enzyme concentration eliminates from the calculation of residual activity and the ratio of both kapp directly indicates the change of kM due to the inhibition.
The assay solution used for determination of residual activities in raw HPPD polypeptide samples was composed by 200 mM sodium phosphate (Merck, Darmstadt, Germany, pH 7.0), 5 mM MgCl2 (Merck, Darmstadt, Germany), 20 mM ascorbate (Sigma-Aldrich, St. Louis, USA), 1 mM DTT (Sigma-Aldrich, St. Louis, USA), 0.1% Pluronic F-68 (Sigma-Aldrich, St. Louis, USA), 40 μM FeSO4 (Sigma-Aldrich, St. […] Louis, USA) and equilibrated for 20 min on ice.

Row | Molecule | turnover and residual turnover, comparison in words | Turnover | Residual turnover | Residual turnover [%]
1 | SEQ ID NO:38 (protein, mutant HPPD polypeptide) MADLYENPMGLMGFEFIEFASPTPGTLEPIFEIMGFTKVATHRSKNVHLYRQGEINLILNNEPNSIASYFAAEHGPSVCGMAFRVKDSQKAYNRALELGAQPIHIDTGPMELNLPAIKGIGGAPLYLIDRFGEGSSIYDIDFVYLEGVERNPVGAGLKVIDHLTHNVYRGRMVYWANFYEKLFNFREARYFDIKGEYTGLTSKAMSAPDGMIRIPLNEESSKGAGQIEEFLMQFNGEGIQHVAFLTDDLVKTWDALKKIGMRFMTAPGDEYYEMLEGRLPDHGEPVDQLQARGILLDGSSVEGDKRLLLQIFSETLMGPVFFEFIQRKGDDGFGPHSFKVLFEQMERDQVRRGVLTAD | does not show a significant turnover | 0.008 | 0.007 | 
2 | SEQ ID NO:35 (protein, mutant HPPD polypeptide) MADLYENPMGLMGFEFIEFASPTPGTLEPIFEIMGFTKVATHRSKNVHLYRQGEINLILNNEPNSIASYFAAEHGPSVCGMAFRVKDSQKAYNRALELGAQPIHIDTGPMELNLPAIKGIGGAPLYLIDRFGEGSSIYDIDFVYLEGVERNPVGAGLKVIDHLTHNVYRGRMVYWANFYEKLFNFREARYFDIKGEYTGLTSKAMSAPDGMIRIPLNEESSKGAGQIEEFLMQFNGEGIQHVAFLTDDLVKTWDALKKIGMRFMTAPGDEYYEMLEGRLPDHGEPVDQLQARGILLDGSSVEGDKRLLLQIFSEKLMGPVFFEFIQRKGDDGFGPHSFKVLFEQMERDQVRRGVLTAD | increases significantly the turnover and residual turnover | 0.27 | 0.158 | 59%
3 | SEQ ID NO:36 (protein, mutant HPPD polypeptide) MADLYENPMGLMGFEFIEFASPTPGTLEPIFEIMGFTKVATHRSKNVHLYRQGEINLILNNEPNSIASYFAAEHGPSVCGMAFRVKDSQKAYNRALELGAQPIHIDTGPMELNLPAIKGIGGAPLYLIDRFGEGSSIYDIDFVYLEGVERNPVGAGLKVIDHLTHNVYRGRMVYWANFYEKLFNFREARYFDIKGEYTGLTSKAMSAPDGMIRIPLNEESSKGAGQIEEFLMQFNGEGIQHVAFLTDDLVKTWDALKKIGMRFMTAPGDEYYEMLEGRLPDHGEPVDQLQARGILLDGSSVEGDKRLLLQIFSEQLMGPVFFEFIQRKGDDGFGPHSFKVLFEQMERDQVRRGVLTAD | increases significantly the turnover and residual turnover | 0.244 | 0.162 | 66%
4 | SEQ ID NO:6 (protein, mutant HPPD polypeptide) MADLYENPMGLMGFEFIEFASPTPGTLEPIFEIMGFTKVATHRSKNVHLYRQGEINLILNNEPNSIASYFAAEHGPSVCGMAFRVKDSQKAYNRALELGAQPIHIDTGPMELNLPAIKGIGGAPLYLIDRFGEGSSIYDIDFVYLEGVERNPVGAGLKVIDHLTHNVYRGRMVYWANFYEKLFNFREARYFDIKGEYTGLTSKAMSAPDGMIRIPLNEESSKGAGQIEEFLMQFNGEGIQHVAFLTDDLVKTWDALKKIGMRFMTAPGDEYYEMLEGRLPDHGEPVDQLQARGILLDGSSVEGDKRLLLQIFSETLMGPVFFEFIQRKGDDGFGPDSFKVLFESIERDQVRRGVLTAD |  | 0.159 | 0.052 | 33%
5 | SEQ ID NO:3 (protein, mutant HPPD polypeptide) MADLYENPMGLMGFEFIEFASPTPGTLEPIFEIMGFTKVATHRSKNVHLYRQGEINLILNNEPNSIASYFAAEHGPSVCGMAFRVKDSQKAYNRALELGAQPIHIDTGPMELNLPAIKGIGGAPLYLIDRFGEGSSIYDIDFVYLEGVERNPVGAGLKVIDHLTHNVYRGRMVYWANFYEKLFNFREARYFDIKGEYTGLTSKAMSAPDGMIRIPLNEESSKGAGQIEEFLMQFNGEGIQHVAFLTDDLVKTWDALKKIGMRFMTAPGDEYYEMLEGRLPDHGEPVDQLQARGILLDGSSVEGDKRLLLQIFSEKLMGPVFFEFIQRKGDDGFGPDSFKVLFESIERDQVRRGVLTAD |  | 0.013 | 0.012 | 
6 | SEQ ID NO:57 (protein, mutant HPPD polypeptide) MADLYENPMGLMGFEFIEFASPTPGTLEPIFEIMGFTKVATHRSKNVHLYRQGEINLILNNEPNSIASYFAAEHGPSVCGMAFRVKDSQKAYNRALELGAQPIHIDTGPMELNLPAIKGIGGAPLYLIDRFGEGSSIYDIDFVYLEGVERNPVGAGLKVIDHLTHNVYRGRMVYWANFYEKLFNFREARYFDIKGEYTGLTSKAMSAPDGMIKIPLNEESSKGAGQIEEFLMQFNGEGIQHVAFLTDDLVKTWDALKKIGMRFMTAPGDEYYEMLEGRLPDHGEPVDQLQARGILLDGSSVEGDKRLLLQIFSEQLMGPVFFEFIQRKGDDGFGPHSFKVLFEQMERDQVRRGVLTAD | increases significantly the absolute turnover | 0.34 | 0.232 | 68%
7 | SEQ ID NO:4 (protein, mutant HPPD polypeptide) MADLYENPMGLMGFEFIEFASPTPGTLEPIFEIMGFTKVATHRSKNVHLYRQGEINLILNNEPNSIASYFAAEHGPSVCGMAFRVKDSQKAYNRALELGAQPIHIDTGPMELNLPAIKGIGGAPLYLIDRFGEGSSIYDIDFVYLEGVERNPVGAGLKVIDHLTHNVYRGRMVYWANFYEKLFNFREARYFDIKGEYTGLTSKAMSAPDGMIRIPLNEESSKGAGQIEEFLMQFNGEGIQHVAFLTDDLVKTWDALKKIGMRFMTAPGDEYYEMLEGRLPDHGEPVDQLQARGILLDGSSVEGDKRLLLQIFSEQLMGPVFFEFIQRKGDDGFGPDSFKVLFESIERDQVRRGVLTAD |  | 0.121 | 0.06 | 50%
8 | SEQ ID NO:5 (protein, mutant HPPD polypeptide) MADLYENPMGLMGFEFIEFASPTPGTLEPIFEIMGFTKVATHRSKNVHLYRQGEINLILNNEPNSIASYFAAEHGPSVCGMAFRVKDSQKAYNRALELGAQPIHIDTGPMELNLPAIKGIGGAPLYLIDRFGEGSSIYDIDFVYLEGVERNPVGAGLKVIDHLTHNVYRGRMVYWANFYEKLFNFREARYFDIKGEYTGLTSKAMSAPDGMIRIPLNEESSKGAGQIEEFLMQFNGEGIQHVAFLTDDLVKTWDALKKIGMRFMTAPGDEYYEMLEGRLPDHGEPVDQLQARGILLDGSSVEGDKRLLLQIFSERLMGPVFFEFIQRKGDDGFGPDSFKVLFESIERDQVRRGVLTAD |  | 0.162 | 0.071 | 44%
9 | SEQ ID NO:61 (protein, mutant HPPD polypeptide) MADLYENPMGLMGFEFIEFASPTPGTLEPIFEIMGFTKVATHRSKNVHLYRQGEINLILNNEPNSIASYFAAEHGPSVCGMAFRVKDSQKAYNRALELGAQPIHIDTGPMELNLPAIKGIGGAPLYLIDRFGEGSSIYDIDFVYLEGVERNPVGAGLKVIDHLTHNVYRGRMVYWANFYEKLFNFREARYFDIKGEYTGLTSKAMSAPDGMIKIPLNEESSKGAGQIEEFLMQFNGEGIQHVAFLTDDLVKTWDALKKIGMRFLTAPGDEYYEMLEGRLPDHGEPVDQLQARGILLDGSSVEGDKRLLLQIFSEQLMGPVFFEFIQRKGDDGFGPDSFKVLFEQMERDQVRRGVLTAD | decreases the turnover and residual turnover | 0.206 | 0.116 | 56%

Source: patent publication US11371056B2, “HPPD variants and methods of use” (BASF Agricultural Solutions Seed US LLC, priority 2017, dated 2022)
